How the values were obtained:
Conditions in all cases: both partners purified
[1] = target: T1, Avi-tagged, biotinylated h14-3-3ß_(nY130) (Homo sapiens, UniProt P31946, 3-nitrotyrosine at 130; biotin on the N-terminal Avi tag); assay: BLI; Nb-G5 (C115S) against nitrated and WT h14-3-3β; conditions of this experiment not told
T1 construct: human 14-3-3 beta with 3-nitrotyrosine in place of Y130, from a pBAD-AVI-14-3-3-His plasmid; also called 14-3-3β_(nY130); 14-3-3_(nY130); source: E. coli BL21ai with genetic code expansion, co-expressed with GST-BirA, purified (TALON); not shown: Avi tag, N-terminal, kept
T1 sequence (P31946 whole entry): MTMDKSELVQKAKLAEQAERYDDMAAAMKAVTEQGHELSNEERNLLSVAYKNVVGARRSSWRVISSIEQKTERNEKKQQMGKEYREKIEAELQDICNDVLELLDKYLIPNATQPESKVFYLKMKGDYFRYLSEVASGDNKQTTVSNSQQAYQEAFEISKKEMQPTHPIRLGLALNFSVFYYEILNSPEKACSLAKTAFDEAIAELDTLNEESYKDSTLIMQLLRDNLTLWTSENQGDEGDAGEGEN

calmodulin WT = calmodulin WT (species ; human CALM1 entry, …, UniProt P0DP23); assay: BLI; CaM forms on sensors (kind of sensor not told), Nb-G5 in solution (300 nM in Figure 3C); 0.05% Tween; local fits
[2] = target: T2, h14-3-3ß_(nY213), His-tagged (Homo sapiens, UniProt P31946, 3-nitrotyrosine at 213); assay: far-Western, overlay or dot blot; 14-3-3 targets (0.5-5 µg) dotted on PVDF, probed with Nb-G5 diluted 1:3,000 in TBS at room temperature, detected with anti-llama HRP
T2 construct: human 14-3-3 beta with 3-nitrotyrosine in place of Y213 (amber suppression); also called nitrated human 14-3-3ß isoform nY213; source: E. coli BL21ai with genetic code expansion, purified (TALON)
T2 sequence (P31946 whole entry, canonical isoform): as the sequence (P31946 whole entry) above

[3] = target: T3, h14-3-3ß_(nY130), His-tagged (Homo sapiens, UniProt P31946, 3-nitrotyrosine at 130); assay: as above
T3 construct: human 14-3-3 beta with 3-nitrotyrosine in place of Y130 (amber suppression); Held on nickel-coated ELISA plates; also called 14-3-3β nitroY130; source: E. coli BL21ai with genetic code expansion, purified (TALON)
T3 sequence (P31946 whole entry): as above

B1: Nb-G5 (C115S) (VHH)
VHH: QVQLQESGGGLVQPGGSLRLSCAASKNIANFDSMAWYRRSPGKERDLVARLYSDGGTNYEDSVKGRFNISTDIEKNTVYLQMNNLKLEDTARYYCRADLGLFDTSEFPGQGTQVTVSS
notes: also called C115S mutant of Nb-G5
B1 was tested, and the “fold decrease of binding against Nb-G5” value [1] was 6 fold.

B2: Nb-G5 (VHH)
VHH: QVQLQESGGGLVQPGGSLRLSCAASKNIANFDSMAWYRRSPGKERDLVARLYSDGGTNYEDSVKGRFNISTDIEKNTVYLQMNNLKLEDTARYYCRADLGLFDTCEFPGQGTQVTVSS
notes: alpaca nanobody from phage display; The methods describe two cleavable tags for nanobodies (His6-SUMO cut by ULP1, His-bdNEDD8 cut by bdNEDP1); also called anti-nitroTyr Nb; source: E. coli, purified (TALON, tag cleaved, Superdex 200 SEC)
B2: no binding (tested: 300 nM) (calmodulin WT); binds [2]; binds [3].

Reference: paper PMC8899190, “Creating a Selective Nanobody Against 3-Nitrotyrosine Containing Proteins” (Frontiers in Chemistry, 2022)
